Test results taken from patent US20250320278A1 (LA JOLLA INSTITUTE FOR IMMUNOLOGY, published 2025).

Assays:
[1] = target: T1, SARS-CoV-2 N protein, full-length (SARS-CoV-2, UniProt P0DTC9 1-419); assay: Octet (BLI) kinetics
T1 construct: mature; also called SARS-CoV-2 nucleoprotein

[2] = target: T2, SARS-CoV-2 N protein oligomerization domain (SARS-CoV-2, UniProt P0DTC9 247-364); assay: Octet, KD (nM) heat map
T2 construct: also called N olig. domain; OD

[3] = target: SARS-CoV-2 N protein RNA-binding domain (SARS-CoV-2, UniProt P0DTC9 44-180); assay: Octet (BLI) kinetics

B1: NP3-E2 (antibody, V domains shown)
VH: EVQLQQSGPEVVRPGVSVKISCKGSGYTFTDYALHWVKQSHTKSLEWIGVISTYSGTTNYNQNFKGKATMAVDKSSSTAYMELARLTSEDSAIYYCASGGNYGLDYWGQGTSVTVSS
VL: DIVMTQSHKFMSTSVGDRVSITCKANQDVGSAVAWYQEKPGQSPKLLIYWTSTRHTGVPDRFTGNGSGTDFTLTISNVQSEDLVDYFCQQYSRYPLTFGSGTKLELK
- Kd [1]: 0.57 nM
- binding result [2]: no binding

B2: NP3-A11 (antibody, V domains shown)
VH: EVQLQESGPELKKPGETVKISCKVSGYTFTNYGMNWVKQAPGKGLKWMGWINTYTGEPKYGDDFKGRFALSLETSAGTAYLRINNLKNEDTATYFCARSHGNYENHFDYWGQGTTLTVSS
VL: DIQMTQSPSSLSVSVGETVTITCRASENIYSSLAWYQQKQGKSPQLLVYTATDLADGVPSRFSGSGSGSQYSLRINSLQSEDFGSYYCQHFWGFPWTFGGGTKLEIK
- Kd [3]: 1.01 nM
- Kd [1]: 0.71 nM
- binding result [2]: no binding

B3: NP3-E3 (antibody, V domains shown)
VH: QIQLVQSGPDLKKPGETVKISCKASGYTFTDYSMHWVKQVPGKGLKWMGWINTETDKPTYADDFKGRFAFSLETSASTAYSQINNLKNEDTATYFCARHYKYDEAWSPYWGQGTLVTVSA
VL: DIVLTQSPASLSVSVGETVTITCRASENIYSNLAWYQQKQGQSPQLLVYAATDLADGVPSRFSGSGSGTQYSLKINSLQSEDFGNYYCQHFWGTPWTFGGGTKLEIK
- Kd [3]: 1.36 nM
- binding result [2]: no binding

B4: NP3-B2 (antibody, V domains shown)
VH: QIQLVQSGGGLVKPGGSLKLSCAASGFTFSDYYMSWVRQTPEKRLEWVATISDGGSYTYYPDSVKGRFTISRDNAKNNLYLHMSSLKSEDTAMYYCARGSTYGNPLDYWGQGTTLTVSS
VL: DIQMTQTTSSLSASLGDRVTINCSASQGISNYLNWYQQKPDGTVKLLIYFTSSLHSGFPSRFSGSGSGTDFSLTISNLEPEDIATYYCQQYSKLPFTFGSGTKLEIK
- Kd [3]: 0.9 nM
- Kd [1]: 1.51 nM
- binding result [2]: no binding

B5: NP3-E5 (antibody, V domains shown)
VH: EVQLVESGGGLVKPGGSLKLSCAASGFTFSDYYMSWVRQTPEKRLEWVATISDGGNYTYYPDSVKGRFTISRDNAKNNLYLQMSSLKSEDTAMYYCARGSTYGNPLDHWGQGTTLTVSS
VL: DIQMTQTTSSLSASLGDRVTINCSASQGISNYLNWYQQKPDGTVKLLIYYTSILHSGVPSRFSGSGSGTDYSLTISNLEPEDIATYYCQQYSKLPFTFGSGTKLEIK
- Kd [3]: 1.38 nM
- Kd [1]: 0.8 nM
- binding result [2]: no binding

B6: NP3-G5 (antibody, V domains shown)
VH: EVQLVESGPELKKPGEPVRISCKASGYTFTDYGMNWVKQAPGKGLKWMGWINTYTGEPTYADDFKGRFAFSLETSASTAFLQITNLKNEDTATYFCARAPLLRSYFDYWGQGTSVTVSS
VL: DIVMTQSHKFMSTSVGDRISITCKASQDVSTAVVWYQQKPGQSLKLLIYSASYRYTGVPDRFTGSGSGTDFTFTISSVQAEDLAIYYCQQYYSTPFTFGSGTKLEIK
- binding result [2]: no binding

B7: NP3-D5 (antibody, V domains shown)
VH: DVQLQESGPELVRPGVSVKISCKGSGYTFTDYVMHWVKQSHAKSLEWIGVISTYSGNTNYNQKFKGKATMTVDKFSNTAYMELARLTSEDSAIYYCTRGTGDFDYWGQGTTLTVSS
VL: DIVMTQSHKFMSTSVGDRVSITCKASQDVGTAVAWYQQKPGQSPKLLIYWASTRHTGVPDRFTGSGSGTDFTLTISNVQSEDLADYFCHQYSSYPYTFGGGTKLEIK
- binding result [2]: no binding

B8: NP3-B1 (antibody, V domains shown)
VH: QVQLQQSGPELVKPGTSVTVYCKASGYTFTTYNIYWVKQSHGKSLEWIGYIDPYNGGTSYNQKFKGKATLTVDKSSSAAYMHLNSLTSEDSAVYYCALPWDYWGQGTTVTVSS
VL: not shown
- Kd [1]: 2.01 nM
- binding result [2]: no binding
